The target in the experiment is human DR5 (human) (UniProt O14763). Kind of experiment: ELISA, half-log dilutions on wells coated with 1 microgram/ml human DR5, anti-mouse polyclonal antibody-HRP.

The record followed here is patent publication US20150004162A1.

Chain of human DR5 (human) (O14763 other isoform, or with tags, fused parts or gaps limits assumed): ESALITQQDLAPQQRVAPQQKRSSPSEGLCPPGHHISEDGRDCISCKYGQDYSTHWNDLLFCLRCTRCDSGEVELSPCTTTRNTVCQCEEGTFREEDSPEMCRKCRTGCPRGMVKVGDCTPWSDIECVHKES

MAB631 (antibody) yielded an EC50 of 0.0651 nM. This counts as picomolar.
